{"source": "patent US20070020327A1", "key": {"HLA-A*0201 (human) [1]": {"target": "HLA-A*0201 (human)", "test": "competitive inhibition of 125I-labelled standard peptide binding to purified HLA, gel filtration; ratio = IC50 standard / IC50 test peptide"}, "HLA-A*0206 (human) [2]": {"target": "HLA-A*0206 (human)", "test": "competitive inhibition of 125I-labelled standard peptide binding to purified HLA, gel filtration; ratio = IC50 standard / IC50 test peptide"}, "HLA-A*0203 (human) [3]": {"target": "HLA-A*0203 (human)", "test": "competitive inhibition of 125I-labelled standard peptide binding to purified HLA, gel filtration; ratio = IC50 standard / IC50 test peptide"}, "HLA-A*6802 (human) [4]": {"target": "HLA-A*6802 (human)", "test": "inhibition of 125I probe peptide binding to purified HLA, gel filtration; ratio = IC50 standard/IC50 test", "conditions": "remark: other sources report otherwise"}, "HLA-A*1101 (human) [5]": {"target": "HLA-A*1101 (human)", "test": "competition with 125I-labelled standard peptide for purified HLA-A*1101, gel filtration; ratio to the A*1101 standard peptide 940.06 [..] (6.0 nM)"}, "HLA-A*0301 (human) [6]": {"target": "HLA-A*0301 (human)", "test": "competition with 125I-labelled standard peptide for purified HLA-A*0301, gel filtration"}, "HLA-A*0301 (human) [7]": {"target": "HLA-A*0301 (human)", "test": "competition with 125I-labelled standard peptide for purified HLA, gel filtration", "conditions": "scale: ratio"}, "HLA-A*1101 (human) [8]": {"target": "HLA-A*1101 (human)", "test": "competition with 125I-labelled standard peptide for purified HLA, gel filtration", "conditions": "scale: ratio"}, "HLA-A*0101 (human)": {"target": "HLA-A*0101 (human)", "test": "competition with 125I-labelled standard peptide for purified HLA-A*0101, gel filtration"}, "[9]": {"target": "HLA-A*0301 (purified HLA class I molecule) (human)", "test": "competition binding assay with purified HLA-A*0301; inhibition of 125I-labelled standard peptide 941.12 ([..], 11 nM), gel filtration"}, "HLA-A*1101 (human) [10]": {"target": "HLA-A*1101 (human)", "test": "competition with 125I-labelled standard peptide for purified HLA-A*1101, gel filtration; standard 940.06 [..] (6.0 nM)"}, "HLA-A*0201 (human) [11]": {"target": "HLA-A*0201 (human)", "test": "inhibition of 125I-labelled probe peptide binding to purified HLA; gel filtration"}, "HLA-A*6802 (human) [12]": {"target": "HLA-A*6802 (human)", "test": "inhibition of 125I-labelled probe peptide binding to purified HLA; gel filtration"}, "HLA-A*0202 (human) [13]": {"target": "HLA-A*0202 (human)", "test": "inhibition of 125I-labelled probe peptide binding to purified HLA; gel filtration"}, "HLA-A*0206 (human) [14]": {"target": "HLA-A*0206 (human)", "test": "inhibition of 125I-labelled probe peptide binding to purified HLA; gel filtration"}, "HLA-A*0203 (human) [15]": {"target": "HLA-A*0203 (human)", "test": "inhibition of 125I-labelled probe peptide binding to purified HLA; gel filtration"}, "HLA-A*0202 (human) [16]": {"target": "HLA-A*0202 (human)", "test": "competition binding to purified HLA, 125I-labelled standard peptide, gel filtration; ratio = IC50 standard / IC50 test peptide"}, "HLA-A*0201 (human) [17]": {"target": "HLA-A*0201 (human)", "test": "competition with 125I-labeled probe peptide for purified HLA, gel filtration"}, "HLA-A*0202 (human) [18]": {"target": "HLA-A*0202 (human)", "test": "competition with 125I-labeled probe peptide for purified HLA, gel filtration"}, "HLA-A*0206 (human) [19]": {"target": "HLA-A*0206 (human)", "test": "competition with 125I-labeled probe peptide for purified HLA, gel filtration"}, "HLA-A*0203 (human) [20]": {"target": "HLA-A*0203 (human)", "test": "competition with 125I-labeled probe peptide for purified HLA, gel filtration"}, "[21]": {"conditions": "remark: other sources report otherwise"}}, "note": "Like-named read-outs stand apart in the source and are kept apart here.", "data": [{"binder": "VLTAAHCL (modifications not checked)", "note": "[VLTAAHCL (Kallikrein, position 60)]", "values": [{"measurement": "binding affinity ratio", "setting": "HLA-A*0201 (human) [1]", "value": 0.0002}, {"measurement": "binding affinity ratio", "setting": "HLA-A*0206 (human) [2]", "value": 0.0001}, {"measurement": "binding affinity ratio", "setting": "HLA-A*0203 (human) [3]", "value": 0.0001}]}, {"binder": "ALSVGCTGA (modifications not checked)", "note": "[… (Kallikrein, position 9)]", "values": [{"measurement": "binding affinity ratio", "setting": "HLA-A*6802 (human) [4]", "value": -0.0001}]}, {"binder": "SLYESWTKK (modifications not checked)", "note": "[… (PSM, position 492)]", "values": [{"measurement": "binding affinity ratio (IC50 of standard peptide / IC50 of test peptide)", "setting": "HLA-A*1101 (human) [5]", "value": 2}, {"measurement": "binding affinity ratio (IC50 of standard peptide / IC50 of test peptide)", "setting": "HLA-A*0301 (human) [6]", "value": 1}, {"measurement": "binding affinity ratio", "setting": "HLA-A*0301 (human) [7]", "value": 1}, {"measurement": "binding affinity ratio", "setting": "HLA-A*1101 (human) [8]", "value": 2}]}, {"binder": "RNETQHEPY (modifications not checked)", "note": "[… (PAP, position 332)]", "values": [{"measurement": "binding affinity ratio (IC50 of standard peptide / IC50 of test peptide)", "setting": "HLA-A*1101 (human) [5]", "value": 0.0002}, {"measurement": "binding affinity ratio (IC50 of standard peptide / IC50 of test peptide)", "setting": "HLA-A*0101 (human)", "value": 0.0002}]}, {"binder": "DTFPTDPIK (modifications not checked)", "note": "[PAP peptide … (position 51, 9 amino acids)]", "values": [{"measurement": "binding affinity ratio (IC50 of standard peptide / IC50 of test peptide) (ratio to standard peptide)", "setting": "[9]", "value": 0.0001}]}, {"binder": "DVLLSYPNK (modifications not checked)", "note": "[PSM peptide … (position 114, 9 amino acids)]", "values": [{"measurement": "binding affinity ratio (IC50 of standard peptide / IC50 of test peptide) (ratio to standard peptide)", "setting": "[9]", "value": 0.0006}]}, {"binder": "EIASKFSER (modifications not checked)", "note": "[PSM peptide … (position 641, 9 amino acids)]", "values": [{"measurement": "binding affinity ratio (IC50 of standard peptide / IC50 of test peptide) (ratio to standard peptide)", "setting": "[9]", "value": 0.0006}]}, {"binder": "SLLSLYGIH (modifications not checked)", "note": "[… (PAP, position 242)]", "values": [{"measurement": "binding affinity ratio (IC50 of standard peptide / IC50 of test peptide)", "setting": "HLA-A*1101 (human) [5]", "value": 0.0002}, {"measurement": "binding affinity ratio (IC50 of standard peptide / IC50 of test peptide)", "setting": "HLA-A*0301 (human) [6]", "value": 0.0006}]}, {"binder": "PSKAWGEVKR (modifications not checked)", "note": "[PSM 721 …]", "values": [{"measurement": "binding affinity ratio (IC50 of standard peptide / IC50 of test peptide)", "setting": "HLA-A*1101 (human) [10]", "value": 0.0002}]}, {"binder": "QDLFGIWSK (modifications not checked)", "note": "[PAP 200 …]", "values": [{"measurement": "binding affinity ratio (IC50 of standard peptide / IC50 of test peptide)", "setting": "HLA-A*1101 (human) [10]", "value": 0.0008}]}, {"binder": "RAVCGGVLVH (modifications not checked)", "note": "[PSA 43 …]", "values": [{"measurement": "binding affinity ratio (IC50 of standard peptide / IC50 of test peptide)", "setting": "HLA-A*1101 (human) [10]; [21]", "value": 0.031}]}, {"binder": "GVSIWNPILV (modifications not checked)", "note": "[peptide 63.0041 (PAP.128.V10)]", "values": [{"measurement": "IC50", "setting": "HLA-A*0201 (human) [11]; [21]", "value": 0.25, "unit": "µM"}, {"measurement": "IC50", "setting": "HLA-A*6802 (human) [12]; [21]", "value": 2.29, "unit": "µM"}, {"measurement": "IC50", "setting": "HLA-A*0202 (human) [13]; [21]", "value": 0.094, "unit": "µM"}, {"measurement": "IC50", "setting": "HLA-A*0206 (human) [14]; [21]", "value": 0.451, "unit": "µM"}]}, {"binder": "TVSGLQMAV (modifications not checked)", "note": "[peptide 60.0213 (PAP.292.V9)]", "values": [{"measurement": "IC50", "setting": "HLA-A*0201 (human) [11]", "value": 0.294, "unit": "µM"}, {"measurement": "IC50", "setting": "HLA-A*6802 (human) [12]", "value": 0.0057, "unit": "µM"}, {"measurement": "IC50", "setting": "HLA-A*0202 (human) [13]", "value": 0.012, "unit": "µM"}, {"measurement": "IC50", "setting": "HLA-A*0206 (human) [14]", "value": 0.195, "unit": "µM"}, {"measurement": "IC50", "setting": "HLA-A*0203 (human) [15]", "value": 0.122, "unit": "µM"}]}, {"binder": "DAVKVMDL (modifications not checked)", "note": "[DAVKVMDL (PSA, position 130, 8 amino acids)]", "values": [{"measurement": "binding affinity ratio", "setting": "HLA-A*0202 (human) [16]", "value": 0.0003}]}, {"binder": "VLAGGFFLV (modifications not checked)", "note": "[Peptide 1389.20 … (PSM.27.V9)]", "values": [{"measurement": "IC50", "setting": "HLA-A*0201 (human) [17]", "value": 0.026, "unit": "µM"}, {"measurement": "IC50", "setting": "HLA-A*0202 (human) [18]", "value": 0.0004, "unit": "µM"}, {"measurement": "IC50", "setting": "HLA-A*0206 (human) [19]", "value": 0.057, "unit": "µM"}, {"measurement": "IC50", "setting": "HLA-A*0203 (human) [20]", "value": 0.005, "unit": "µM"}]}]}
